The values below come from patent publication US10442866 (BEIJING MABWORKS BIOTECH, dated 2019).

For assay [1], the target named is T1, murine OX40-His (Crown, Cat#: E3350-B1707) (mouse, UniProt P47741 20-211).
T1 construct: bought protein; also called mouse OX40-his; muOX40-his; not shown: His tag
T1 sequence: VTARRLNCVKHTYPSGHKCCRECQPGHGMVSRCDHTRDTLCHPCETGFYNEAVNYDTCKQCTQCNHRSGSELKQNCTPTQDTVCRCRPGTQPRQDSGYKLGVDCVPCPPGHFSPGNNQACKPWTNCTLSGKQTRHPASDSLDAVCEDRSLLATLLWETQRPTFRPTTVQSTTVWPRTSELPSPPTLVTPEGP
Put plainly: ELISA on coated mouse OX40-His, OD450. A general note: In an ELISA, binding on a coated surface is turned into a signal by an enzyme label.

Assay [2] deals with T2, recombinant rhesus OX40-his (Sino Biological, Cat#:90846-C08H) (rhesus monkey, UniProt P43489 29-214 (human entry)).
T2 construct: bought protein; also called monkey OX40-his; rhOX40-his; not shown: His tag
T2 chain: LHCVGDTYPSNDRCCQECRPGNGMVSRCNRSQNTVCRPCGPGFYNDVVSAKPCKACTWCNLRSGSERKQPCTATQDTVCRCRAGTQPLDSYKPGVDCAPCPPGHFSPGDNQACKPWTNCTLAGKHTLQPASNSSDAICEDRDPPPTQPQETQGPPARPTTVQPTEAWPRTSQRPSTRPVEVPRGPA
Description: ELISA on coated rhesus OX40-His, OD450.

Assay [3] concerns the target T3, recombinant human OX40-his (Sino Biological, Cat#:10481-H03H) (human, UniProt P43489 29-214).
T3 construct: bought protein; also called hOX40-his; not shown: His tag
T3 sequence: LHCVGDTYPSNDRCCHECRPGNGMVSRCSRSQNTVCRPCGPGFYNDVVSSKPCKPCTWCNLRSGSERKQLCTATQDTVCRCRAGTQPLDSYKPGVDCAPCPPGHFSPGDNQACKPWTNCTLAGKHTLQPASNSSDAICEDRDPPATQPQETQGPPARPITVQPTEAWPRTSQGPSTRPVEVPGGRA
Put plainly: ELISA on coated human OX40-his, OD450.

For assay [4], the target named is T3, recombinant human OX40-his (Sino …). Description: SPR Biacore 8K, OX40-His on chip, antibody injected. On the technique in general: Surface plasmon resonance follows binding to a sensor surface in real time, without labels.
For assay [5] the target is unchanged. Description: ELISA on coated human OX40-His, OD450.
Assay [6] addresses T1, murine OX40-His (Crown, Cat#: …). Description: ELISA on coated mouse OX40-His, OD450. The source holds these as a separate data set.
Assay [7] addresses T2, recombinant rhesus OX40-his (Sino …). Put plainly: ELISA on coated rhesus OX40-His, OD450.
In assay [8] the target is T3, recombinant human OX40-his (Sino …). Put plainly: ELISA on coated human OX40-his, OD450. The source holds these as a separate data set.

Where two headings read alike, the source gives them in different places.

B1: 68C8-VH2VL3 (antibody, human IgG1, kappa, V domains shown)
VH: QVQLVQSGAEVKKPGASVKVSCKVSGDTFTSYWITWVRQRPGKGLEWMGDIHPGSGSTNNNEKFKNRVTMTVDTSTDTAYMELSSLRSEDTAVYYCATLRPYYFVYWGQGTLVTVSS
VL: DIQMTQSPSSLSASVGDRVTITCRASQDISNYLNWYQQKPGKTVKLLIYYTSRLLSGVPSRFSGSGSGTDYTLTISSLQPEDFATYFCQQGNTLPLTFGQGTRLEIKR
notes: humanized; also called 68C8-H2L3; 68C8H2L3
Broadly, the EC50 (read off the curve) is the concentration at which the effect is half-maximal. The term Kd denotes the equilibrium constant for the complex coming apart. For orientation: koff means a measure of how fast the partners let go of each other. By kon is commonly meant the rate constant with which the complex forms. Regarding B1, in assay [1], the binding result is listed as “no binding (tested: 10000 ng/ml (log 4))”. Also, the binding result in assay [2] was “binds”. In addition, in assay [3], the “EC50 (read off the curve)” value was approximately 3 ng/mL. Also, in assay [4], the equilibrium dissociation constant (Kd) turned out to be 1.96 nM, the koff is 0.000927 s⁻¹ and the association rate constant (kon) was found to be 473000 M⁻¹ s⁻¹.

B2: 71H8-VH2VL3 (antibody, human IgG1, kappa, V domains shown)
VH: QVQLVQSGAEVKKPGASVKVSCKVSGYTFTSYWITWVRQRPGKGLEWMGDIYPGSGSTNQNEKFKSRVTMTVDTSTDTAYMELSSLRSEDTAVYYCATLRPYYFVYWGQGTLVTVSS
VL: DIQMTQSPSSLSASVGDRVTITCRASQDISNYLNWYQQKPGKTVKLLIYYTSRLLSGVPSRFSGSGSGTDYTLTISSLQPEDFATYFCQQGNTLPLTFGQGTRLEIKR
notes: humanized; also called 71H8-H2L3; 71H8H2L3
B2: the 50% effective concentration (EC50 (read off the curve)) in assay [5] is approximately 3 ng/mL. The binding result in assay [6] is listed as “no binding (tested: 10000 ng/ml (log 4))”. The “EC50 (read off the curve)” value in assay [7] was approximately 3 ng/mL. In addition, the concentration giving a half-maximal response (EC50 (read off the curve)) in assay [8] was approximately 7 ng/mL. Further, in assay [4], the Kd is 4.57 nM, the off-rate constant (koff) amounted to 0.00198 s⁻¹ and the kon was determined as 434000 M⁻¹ s⁻¹.
